For assay [1], the target named is HDAC4-VP16 fusion protein (pACT-HDAC4) (human, UniProt P56524 1-1084). In words: mammalian two-hybrid (CheckMate), pG5-Luc luciferase in Jurkat cells.
In assay [2] the target is T1, HDAC4 (H863L)-VP16 fusion protein (pACT-HDAC4 (H863L)) (human, UniProt P56524 1-1084).
T1 construct: also called HDAC4 dominant negative variant (H863L)
The assay is described as above.

The subject of a further assay is histone. In words: HDAC activity with [3H]-labeled acetylated histone as a substrate. The format is biochemical, human. To be noted: expressed in 293T cells, crudely purified; compared to wild-type HDAC4. The procedure: 7 μg of a plasmid for the expression of wild-type HDAC4 and HDAC4 dominant negative variants (H802K, H803L, H863L) was transfected to 293T cells by the calcium phosphate method; 48 hours later, whole cell lysate (cells were disrupted in 25 mM Tris, pH 7.4, 150 mM NaCl, 1 mM CaCl2, 1% Triton X-100, and cell debris was removed by centrifugation) was crudely purified using an anti-Flag antibody column (SIGMA, anti-Flag M2-agarose) (washed with TBS, then eluted with 0.1M Glysine-HCl, pH 3.5), and used for the measurement of HDAC activity. The reaction substrate used was a [^3H]-labeled acetylated histone prepared by cultivating Jurkat cells (2×10^8 cells) in 40 mL of an RPMI (SIGMA) medium containing 300 MBq [^3H] sodium acetate (NENTM Life Science Products, Inc.) for 2 hours, disrupting the cells in Lysis buffer, pH 6.5 (10 mM Tris-HCl, 50 mM Sodium Hydrogen sulfate, 1% Triton X-100, 10 mM MgCl2-6H2O, 8.6% Sucrose), washing the cells with Wash buffer (10 mM Tris-HCl, 13 mM EDTA), and then adding 0.4N H2SO4.

For assay [3], the system named is IL-2 transcription (human IL-2 promoter). In words: IL-2 reporter gene assay in Jurkat cells. It is filed as cell-based. The procedure: To 1 μg of the plasmid pGL3 IL2 Pro43, which has a human IL-2 promoter sequence (the −674 to +54 region in the vicinity of the transcription initiation site) upstream of the firefly luciferase gene, and 6 μg of pRL-TK (Promega), the plasmids for the expression of wild-type HDAC4 or each of HDAC4 dominant negative variants (H802K, H803L, H863L) prepared in Example 3 was mixed in various ratios (1, 3 and 10 μg), and 1×10^7 Jurkat cells (ATCC, TIB-152) were transformed by the electroporation method (BIO-RAD, Gene Pulser II, voltage 300 V, charge 975 μF, 400 μL).
After transformation, 2.5 mL of RPMI 1640 containing 10% FBS (MOREGATE) (10% FBS RPMI 1640) was added, and this mixture was dispensed to a 96-well white plate in a ratio of 50 μL/well. After cultivation under conditions of 37° C., 5% CO2 and saturated humidity for 10 hours, a liquid mixture of Phorbol 12-Myristate 13-Acetate (PMA, SIGMA), Ionomycin (SIGMA) and Anti-CD28 antibody (Pharmingen) in 10% FBS RPMI 1640 was added at 50 μL/well (the final concentrations were 50 ng/mL, 1 μg/mL and 75 ng/mL, respectively) to stimulate the Jurkat cells. After cultivation under conditions of 37° C., 5% CO2 and saturated humidity for 12 hours, luciferase activity in the cells was measured according to the manual of the Bright-Glo Luciferase Assay System (Promega) using a multi-label counter (1420 MULTILABEL COUNTER ARVO SX, WALLAC).
1×10^7 Jurkat cells (ATCC, TIB-152) were transformed with 10 μg of a plasmid for the expression of various HDACs or HDAC variants by the electroporation method (BIO-RAD, Gene Pulser II, voltage 300 V, charge 975 μF, 400 μL). […] After cultivation under conditions of 37° C., 5% CO2 and saturated humidity for 12 hours, luciferase activity in cells were measured according to the manual of the Bright-Glo Luciferase Assay System (Promega), and IL-2 transcriptional activity was measured using a multi-label counter (1420 MULTILABEL COUNTER ARVO SX, WALLAC).
A mixture of four kinds of HDAC4-targeted siRNA, i.e., siGENE HDAC4 SMARTpool (manufactured by Dharmacon Inc., marketed by B-Bridge international Inc., code number M-003497-00-05), or Non-specific Control Duplex IX (47% GC content) (manufactured by Dharmacon Inc., marketed by B-Bride international Inc., code number D-001206-09-20), and pGL3 IL2 Pro43 were transfected to Jurkat cells by the electroporation method using the same conditions as those mentioned above, and IL-2 transcriptional activity was measured. Likewise, siGENE HDAC4 SMARTpool or Non-specific Control Duplex IX, and pGL3-HSI-IE Pro were transfected to HEL cells, and GATA-1 transcriptional activity was measured. […]
On the technique in general: A reporter such as luciferase makes a cellular process visible.

Assay [4] concerns GATA-1 transcription (human GATA-1 promoter). The assay can be described thus: GATA-1 reporter gene assay in HEL cells. The format is cell-based. To be noted: 10 μg expression plasmid. The procedure:
Using 15 μg of pGL3-HSI-IE Pro and 10 μg of a plasmid for the expression of various HDACs or HDAC variants, 8.75×10^6 HEL cells (accession number JCRB0062, JCRB) were transformed by the electroporation method (BIO-RAD, Gene Pulser II, voltage 1750 V, charge 10 μF, 365 μL). After transformation, 2 mL of 10% FBS RPMI 1640 was added, and this mixture was dispensed to a 96-well white plate in a ratio of 50 μL/well. After cultivation under conditions of 37° C., 5% CO2 and saturated humidity for 3 hours, 10% FBS RPMI 1640 medium was added at 50 μL/well. After cultivation under conditions of 37° C., 5% CO2 and saturated humidity for 8 hours, luciferase activity in cells were measured according to the manual of the Bright-Glo Luciferase Assay System, and GATA-1 transcriptional activity was measured using a multi-label counter.
A mixture of four kinds of HDAC4-targeted siRNA, i.e., siGENE HDAC4 SMARTpool (manufactured by Dharmacon Inc., marketed by B-Bridge international Inc., code number M-003497-00-05), or Non-specific Control Duplex IX (47% GC content) (manufactured by Dharmacon Inc., marketed by B-Bride international Inc., code number D-001206-09-20), and pGL3 IL2 Pro43 were transfected to Jurkat cells by the electroporation method using the same conditions as those mentioned above, and IL-2 transcriptional activity was measured. […]

B1: GAL4-N-CoR (RD3) fusion protein (pBIND-N-CoR(RD3)) (other, not shown: large carriers)
chain: EVLQPAPHQVITNLPEGVRLPTTRPTRPPPPLIPSSKTTVASEKPSFIMGGSISQGTPGTYLTSHNQASYTQETPKPSVGSISLGLPRQQESAKSATLPYIKQEEFSPRSQNSQPEGLLVRAQHEGVVRGTAGAIQEGSITRGTPTSKISVESIPSLRGSITQGTPALPQTGIPTEALVKGSISRMPIEDSSPEKGREEAASKGHVIYEGKSGHILSYDNIKNAREGTRSPRTAHEISLKRSYESVEGNIKQGMSMRESPVSAPLEGLICRALPRGSPHSDLKERTVLSGSIMQGTPRATTESFEDGLKYPKQIKRESPPIRAFEGAITKGKPYDGITTIKEMGRSIHEIPRQDILTQESRKTPEVVQSTRPIIEGSISQGTPIKFDNNSGQSAIKHNVKSLITGPSKLSRGMPPLEIVPENIKVVERGKYEDVKAGETVRSRHTSVVSSGPSVLRSTLHEAPKAQLSPGIYDDTSARRTPVSYQN
notes: The cloned fragment carried the variation L1014V (numbered on full-length N-CoR); also called pBND-N-CoR (RD3)
In the case of B1, the results for the binding result in assay [1] and in assay [2] were “binds” and “no binding”, respectively.

B2: HDAC4 dominant negative variants (H802K, H803L): HDAC4 variant with H802K and H803L mutations, amino acid sequence SEQ ID NO:4, expressed from plasmid (protein)
chain: MSSQSHPDGLSGRDQPVELLNPARVNHMPSTVDVATALPLQVAPSAVPMDLRLDHQFSLPVAEPALREQQLQQELLALKQKQQIQRQILIAEFQRQHEQLSRQHEAQLHEHIKQQQEMLAMKHQQELLEHQRKLERHRQEQELEKQHREQKLQQLKNKEKGKESAVASTEVKMKLQEFVLNKKKALAHRNLNHCISSDPRYWYGKTQHSSLDQSSPPQSGVSTSYNHPVLGMYDAKDDFPLRKTASEPNLKLRSRLKQKVAERRSSPLLRRKDGPVVTALKKRPLDVTDSACSSAPGSGPSSPNNSSGSVSAENGIAPAVPSIPAETSLAHRLVAREGSAAPLPLYTSPSLPNITLGLPATGPSAGTAGQQDTERLTLPALQQRLSLFPGTHLTPYLSTSPLERDGGAAHSPLLQHMVLLEQPPAQAPLVTGLGALPLHAQSLVGADRVSPSIHKLRQHRPLGRTQSAPLPQNAQALQHLVIQQQHQQFLEKHKQQFQQQQLQMNKIIPKPSEPARQPESHPEETEEELREHQALLDEPYLDRLPGQKEAHAQAGVQVKQEPIESDEEEAEPPREVEPGQRQPSEQELLFRQQALLLEQQRIHQLRNYQASMEAAGIPVSFGGHRPLSRAQSSPASATFPVSVQEPPTKPRFTTGLVYDTLMLKHQCTCGSSSSHPEHAGRIQSIWSRLQETGLRGKCECIRGRKATLEELQTVHSEAHTLLYGTNPLNRQKLDSKKLLGSLASVFVRLPCGGVGVDSDTIWNEVHSAGAARLAVGCVVELVFKVATGELKNGFAVVRPPGKLAEESTPMGFCYFNSVAVAAKLLQQRLSVSKILIVDWDVHHGNGTQQAFYSDPSVLYMSLHRYDDGNFFPGSGAPDEVGTGPGVGFNVNMAFTGGLDPPMGDAEYLAAFRTVVMPIASEFAPDVVLVSSGFDAVEGHPTPLGGYNLSARCFGYLTKQLMGLAGGRIVLALEGGHDLTAICDASEACVSALLGNELDPLPEKVLQQRPNANAVRSMEKVMEIHSKYWRCLQRTTSTAGRSLIEAQTCENEEAETVTAMASLSVGVKPAEKRPDEEPMEEEPPL
modifications: Dominant negative mutant (H802K, H803L) of human histone deacetylase-4 (HDAC4) gene
B2: in the assay with histone, the “HDAC activity with histone as a substrate” value was “decreased HDAC activity compared to wild-type HDAC4”. For the same molecule, the “IL-2 transcriptional activity (luciferase)” value in assay [3] (Jurkat cells stimulated with PMA, Ionomycin, Anti-CD28 antibody, expression plasmid 1, 3 and 10 μg) was “IL-2 transcription suppression depending on the expression level”; in assay [3] (Jurkat cells, 10 μg expression plasmid, compared with HDAC1 and HDAC3 variants) it was “IL-2 transcription suppression was observed”. In assay [4], the “GATA-1 transcriptional activity (luciferase)” value was “GATA-1 transcription suppression was not observed”.

For the origin of these results see patent publication US20070123452A1, “Method of selecting novel immunosuppressant” (Astellas Pharma Inc., priority 2002, published 2007).
